Assay results: publication PMC10841013

Biological target: T1, rArgR (Streptococcus suis CZ130302) (UniProt Q3C167)
T1 sequence: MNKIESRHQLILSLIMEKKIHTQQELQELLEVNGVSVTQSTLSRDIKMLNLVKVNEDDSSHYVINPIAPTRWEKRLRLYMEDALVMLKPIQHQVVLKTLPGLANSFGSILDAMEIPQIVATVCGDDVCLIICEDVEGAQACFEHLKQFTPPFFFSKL
Test: EMSA

Sequence: TGGATGGTTTGACATGATCTGTCCTCCTTGTAGATTTATACATGATGGGAAACGAGGAGGACCGTACGCTTTCCTGCCTCTCATTTCCTCTTTACATCCATAGTTTAACAGAGCAAAAAAACAAAAACTTGAAAACGCTCGCATTTATGTTGAGAAATTCTTCACATTTTCAACCTTATTTATAAATAATTATCGATTATATCGCCTATATTATGCATAATTCTTTCTATTATATCATTATGTGAATTTT (double strand) [arcA promoter 250 bp]
- binding: binds
